Results: patent US9090994B2

How the values were obtained:
[1] = molecular target: c-Myc-containing recombinant protein; assay: SPR; fold change of KD, WT is itself the reference
[2] = molecular target: c-Myc-containing recombinant protein; assay: SPR (Biacore T200), c-Myc-containing recombinant protein immobilised, soluble Fab injected at 5-80 nM, 1:1 Langmuir fit

- Fold change [1]: 1 fold
- Kd [2]: 110 nM
- koff [2]: 0.018 s⁻¹
- kon [2]: 160000 M⁻¹ s⁻¹
B1: parental murine Fab of aM (murine monoclonal antibody raised against c-Myc peptide) (Fab, V domains shown)
VH: QIQLVQSGPELKKPGETVRISCKASGYTFTTAGMQWVQKMPGKGLKWIGWINTHSGVPKYAEDFKGRFAFSLETSASTAYLQMTNLNNEDTATYFCARGYGKGGYFAMDYWGQGTSVTVSS
VL: DVVMTQIPFSLPVSLGDQASISCRSSQSLVHSNGNTYLHWYVQKPGQSPKLLIYKVSNRFSGVPDRFSGSGSGTYFTLKISRVEAEDLGVYFCSQSTRVPWTFGGGTKLEIK
